Laboratory results: IntAct's records for PubMed 22939624

B1: non-specific protein-tyrosine kinase (Homo sapiens), A9UEZ6 (parent)
chain: MVDPVGFAEAWKAQFPDSEPPRMELRSVGDIEQELERCKASIRRLEQEVNQERFRMIYLQTLLAKEKKSYDRQRWGFRRAAQAPDGASEPRASASRPQPAPADGADPPPAEEPEARPDGEGSPGKARPGTARRPGAAASGERDDRGPPASVAALRSNFERIRKGHGQPGADAEKPFYVNVEFHHERGLVKVNDKEVSDRISSLGSQAMQMERKKSQHGAGSSVGDASRPPYRGRSSESSCGVDGDYEDAELNPRFLKDNLIDANGGSRPPWPPLEYQPYQSIYVGGMMEGEGKGPLLRSQSTSEQEKRLTWPRRSYSPRSFEDCGGGYTPDCSSNENLTSSEEDFSSGQSSRVSPSPTTYRMFRDKSRSPSQNSQQSFDSSSPPTPQCHKRHRHCPVVVSEATIVGVRKTGQIWPNDGEGAFHGDADGSFGTPPGYGCAADRAEEQRRHQDGLPYIDDSPSSSPHLSSKGRGSRDALVSGALESTKASELDLEKGLEMRKWVLSGILASEETYLSHLEALLLPMKPLKAAATTSQPVLTSQQIETIFFKVPELYEIHKEFYDGLFPRVQQWSHQQRVGDLFQKLASQLGVYRVLGYNHNGEWCEAQTKNGQGWVPSNYITPVNSLEKHSWYHGPVSRNAAEYLLSSGINGSFLVRESESSPGQRSISLRYEGRVYHYRINTASDGKLYVSSESRFNTLAELVHHHSTVADGLITTLHYPAPKRNKPTVYGVSPNYDKWEMERTDITMKHKLGGGQYGEVYEGVWKKYSLTVAVKTLKEDTMEVEEFLKEAAVMKEIKHPNLVQLLGVCTREPPFYIITEFMTYGNLLDYLRECNRQEVNAVVLLYMATQISSAMEYLEKKNFIHRDLAARNCLVGENHLVKVADFGLSRLMTGDTYTAHAGAKFPIKWTAPESLAYNKFSIKSDVWAFGVLLWEIATYGMSPYPGIDLSQVYELLEKDYRMERPEGCPEKVYELMRACWQWNPSDRPSFAEIHQAFETMFQESSISDEVEKELGKQGVRGAVSTLLQAPELPTKTRTSRRAAEHRDTTDVPEMPHSKGQGESDPLDHEPAVSPLLPRKERGPPEGGLNEDERLLPKDKKTNLFSALIKKKKKTAPTPPKRSSSFREMDGQPERRGAGEEEGRDISNGALAFTPLDTADPAKSPKPSNGAGVPNGALRESGGSGFRSPHLWKKSSTLTSSRLATGEEEGGGSSSKRFLRSCSASCVPHGAKDTEWRSVTLPRDLQSTGRQFDSSTFGGHKSEKPALPRKRAGENRSDQVTRGTVTPPPRLVKKNEEAADEVFKDIMESSPGSSPPNLTPKPLRRQVTVAPASGLPHKEEAGKGSALGTPAAAEPVTPTSKAGSGAPGGTSKGPAEESRVRRHKHSSESPGRDKGKLSRLKPAPPPPPAASAGKAGGKPSQSPSQEAAGEAVLGAKTKATSLVDAVNSDAAKPSQPGEGLKKPVLPATPKPQSAKPSGTPISPAPVPSTLPSASSALAGDQPSSTAFIPLISTRVSLRKTRQPPERIASGAITKGVVLDSTEALCLAISRNSEQMASHSAVLEAGKNLYTFCVSYVDSIQQMRNKFAFREAINKLENNLRELQICPATAGSGPAATQDFSKLLSSVKEISDIVQR

Variants of: B1
Conditions: with hs90b_human HSP90AB1, P08238
Chain of hs90b_human HSP90AB1, P08238 (P08238 whole entry): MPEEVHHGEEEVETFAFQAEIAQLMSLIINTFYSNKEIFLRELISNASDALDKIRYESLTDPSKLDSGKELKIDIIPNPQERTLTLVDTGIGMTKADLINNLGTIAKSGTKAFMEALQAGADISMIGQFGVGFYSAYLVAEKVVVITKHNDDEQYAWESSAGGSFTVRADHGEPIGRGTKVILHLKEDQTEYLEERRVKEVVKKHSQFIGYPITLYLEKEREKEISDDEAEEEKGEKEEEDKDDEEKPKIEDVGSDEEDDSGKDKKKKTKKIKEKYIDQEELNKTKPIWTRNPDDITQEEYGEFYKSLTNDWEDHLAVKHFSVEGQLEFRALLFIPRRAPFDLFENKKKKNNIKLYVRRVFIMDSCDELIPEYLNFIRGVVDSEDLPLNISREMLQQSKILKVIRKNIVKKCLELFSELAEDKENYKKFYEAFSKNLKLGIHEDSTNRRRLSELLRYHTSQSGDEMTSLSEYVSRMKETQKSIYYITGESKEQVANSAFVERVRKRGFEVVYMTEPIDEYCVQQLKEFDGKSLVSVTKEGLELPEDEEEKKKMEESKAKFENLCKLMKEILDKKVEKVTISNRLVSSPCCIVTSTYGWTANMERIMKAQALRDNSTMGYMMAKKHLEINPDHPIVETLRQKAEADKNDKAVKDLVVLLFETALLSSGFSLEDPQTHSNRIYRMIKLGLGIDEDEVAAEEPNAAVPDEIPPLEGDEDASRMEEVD

Row | effect of a mutation on the interaction | Variant
1 | decreasing interaction | M747I
2 | increasing interaction | M975I
